# Experimental data from patent US20050154189A1 (MAXYGEN, published 2005).
# Biological target: T1, Soluble CTLA-4-Ig (human, UniProt P16410 36-161, FITC-conjugated in the two-colour FACS assays; unlabelled and detected with FITC goat anti-human IgG in the concentration-dependent assay)
# T1 construct: extracellular domain; Bought from R&D Systems; also called sCTLA-4-Ig; CTLA-4-Ig Fc; not shown: Fc portion of human IgG1
# Experiment: two-colour FACS profile on transfected cells; score of preference for CTLA-4-Ig over CD28-Ig vs WT hB7-1
# T1 sequence (P16410 36-161): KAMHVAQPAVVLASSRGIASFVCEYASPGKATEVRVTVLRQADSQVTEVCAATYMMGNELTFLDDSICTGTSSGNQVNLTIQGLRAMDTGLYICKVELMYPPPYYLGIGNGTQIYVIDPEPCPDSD
row,Binder,Binding Score
1,Round 2 CTLA4BP 5x4-h1 (ligand) VIHVTKEVKEVATLSCGHNVSVEELAQTRIHWQKEKKMVLTMMSGDMNIWPEYKNRTIFDITNNLSIVILALRPSDEGTYECVVLKYEKDAFKRKHLAEVMLSVKADFPTPSISDFEIPTSNIRRIICSTSGGFPEPHLFWLENGEELNAINTTASQDPETELYTVSSKLDFNMTTNRSFVCLIKYGHLRVNQTFNWNTPKQEHFPNNLLPSWAITLISVNGIFVICCLTYCFAPRCRERRRNETLRRESVHPV,2
2,Round 2 CTLA4BP 5x9-d10 (ligand) VIHVTKEVKEVATLSCGLNVSVEELAQTRIYWQKGKKMVLTMMSGDMNIWPEYKNRTIFDITNNLSIVILALRPSDEGTYECVVLEYEKDAFKREHLAEVMLSVKADFPTPSISDFEIPPSNIRRIICSTSGGFPEPHLSWLENGEELNAINTTASQDPGTELYTVSSKLDFNMTTNHSFMCLIKYGHLRVNQTFNWNTPKQEHFPDNLLPSWAITLISVNGIFVICCLTHCFAPRCRERRRNERLRRESARPV,1
3,Round 2 CTLA4BP 5x6-f6 (ligand) VIHVTKEVKEVATLSCGHNVSVEELAQTPIYWQKEKKMVLTMMSGDMNIWPEYKNRTIFDITNNLSIVILALRPSDEGTYECVVLKYEKDAFKREHLAEVMLSVKADFPTPSITDFEIPPSNIRRIICSTSGGFPEPHLFWLENGEELNAINTTVSQDPETELYTVSSKLDFNMTTNRSFVCLIKYGHLRVNQTFNWNTPKQEHFPDNLLPSWAITLISANGIFVICCLTYRFAPRCRERRRNERLRRESVCPV,1
4,Round 2 CTLA4BP 5x5-h12 (ligand) VIHVTKKVKEVATLSCGHNVSVEELAQTRIHWQKEKKMVLTMMSGDMNIWPEYKNRTIFDITNNLSIVILALRPSDEGTYECVVLKYEKDAFKREHLAEVMLSVKADFPTPSISDFEIPPSNIRRIICSTSGGFPEPHLSWLENGEELNAINTTVSQDPGTELYTVSSKLDFNMTTDRSFVCLIKYGHLRVNQTFNWNTPKQEHFPDNLLPSWAITLISVNGIFVICCLTYCFAPRCRERRRNGRLRRESVRPV,1
5,Round 2 CTLA4BP 5x5-c10 (ligand) VIHVTKEVKEVATLSCGHNVSVEELAQTRIYWQKEKKMVLTMMSGDMNIWPEYKNRTIFDITNNLSIVILALRPSDEGTYECVVLEYEKDAFKREHLAEVTLSVKADFPTPSITDFEIPPSNIRRIICSTSGGFPEPHLFWLENGEELNAISTTVSQDPETELYAVSSKLDFNMTTNHSFMCLIKYGHLRVNQTFNWNTTKQEHFPDNLLPSWAITLISVNGIFVICCLTYCFAPRCRERRRNERLRRESVHPV,1

# The remaining lines, values ahead:
row,Binding Score,Binder
1,2,Round 2 CTLA4BP-5x2-2g (ligand) VIHVTKEVKEVATLSCGHNVSVEELAQTRIHWQKEKKMVLTMMSGDMNIWPEYKNRTIFDITNNLSIVILALRPSDEGTYECVVLKYEKDAFKREHLAEVMLSVKADFPTPSITDFEIPTSNIRRIICSTSGGFPEPHLSWLENGEELNAINTTVSQDPETELYTVSSKLDFNMTTNHSFMCLIKYGHLRVNQTFNWNTPKQEHFPDNLLPSWAITLISVNGIFVICCLTYRFAPRCRERKSNERLRRESVRPV
2,1,Round 2 CTLA4BP-5X2-12F (ligand) VIHVTKEVKEVATLSCGHNVSVEELAQTRIHWQKEKKMVLTMMSGDMNIWPEYKNRTIFDITNNLSIVILALRPSDEGTYECVVLKYEKDAFKREHLAEVTLSVKADFPTPSITDFEIPPSNIKRIICSTSGGFPEPHLSWLENGEELNAINTTVSQDPETELYTVSSKLDFNMTTNHSFMCLIKYGHLRVNQTFNWNTPKQEHFPDNPLPSWAITLISANGIFVICCLTYCFAPRCRERRRNETLRRESVRPV
3,2,Round 2 CTLA4BP-5x2-3c (ligand) VIHVTREVKEVATLSCGHNVSVEELAQTRIHWQKEKKMVLTMMSGDMNIWPEYKNRTIFDITNNLSIVILALRPSDEGTYECVVLKYEKDAFKREHLAEVMLSVKADFPTPSISDFEIPTSNIRRIICSTSGGFPEPHLSWLENGEELNAINTTVSQDPETGLYTVSSKLDFNMTTNHSFMCLIKYGHLRVNQTFNWNTPKQEHFPDNLLPSWAITLISVNGIFVICCLTYCFAPRCRERRRNERLRRESVCPV
